One test concerns the target T1, Cx43CT Y313D (rat, UniProt P08050 236-382, Y313D, 15N-labelled).
T1 construct: Connexin43 (Cx43), rat, carboxyl-terminal domain, residues V236-I382, with the phosphomimetic Y313D; The mutation was put into 'the Cx43CT plasmid'; also called single phosphomimetic; source: bacterial expression vector pGEX-6P-2, expressed and purified in 1x PBS as previously described
Briefly: NMR titration; 15N-HSQC at 7 °C; 15N-labelled Cx43CT (WT, Y313D or Y265,313D) at constant 35 μM, unlabelled β-catenin, β-catenin CT or β-catenin ΔCT added up to 285 μM; 1x PBS pH 7.8, 2 mM dithiothreitol; KD from the fit of the decrease in signal intensity. Particulars: both partners purified.

For test [1], the target named is T2, Connexin43 carboxyl-terminal domain (V236–I382) (rat, UniProt P08050 236-382, 15N-labelled).
T2 construct: Connexin43 (Cx43), rat, carboxyl-terminal domain, residues V236-I382; pGEX-6P-2 carries a PreScission site, so GST was probably cleaved (surmise); also called Cx43CT; Cx43CT WT; source: bacterial expression vector pGEX-6P-2, expressed and purified in 1x PBS as previously described
Described as above. The note with it: both partners purified.

This is an account of results in PMC6032326, “Connexin43 Carboxyl-Terminal Domain Directly Interacts with β-Catenin” (International Journal of Molecular Sciences, 2018).

Values joined by “and” are separate entries in the source; they are usually repeats but may differ in a detail not shown here. Equal values may be shown once.

B1: β-catenin carboxyl-terminal (CT) domain (S681–L781) (domain or fragment, human, UniProt P35222 681-781, looked up)
chain: SLFRTEPMAWNETADLGLDIGAQGEPLGYRQDDPSYRSFHSGGYGQDALGMDPMMEHEMGGHHPGADYPVDGLPDLGHAQDLMDGLPPGDSNQLAWFDTDL
notes: β-catenin, human, C-terminal domain, residues S681-L781; also called β-catenin CT; β-catenin CT domain
In the case of B1, the dissociation constant Kd in the test with Cx43CT Y313D is 341 µM; in test [1], 210 µM and 202 µM.

A word on the Kd: it is the free concentration of one partner at which half of the binding sites on the other are occupied at equilibrium, for simple one-to-one binding. Read a low Kd as a tighter complex.
